This note sets out measurements from paper PMC4038756 (Theranostics, 2014).

For data set [1], the target named is αvβ6 integrin-positive H2009 human NSCLC cells (Homo sapiens, UniProt P06756+P18564). Kind of data set: Peptide competition assay: inhibition of H2009.1 peptide phage binding to cells.
The subject of the next data set is H460 (αvβ6^-) xenografts. Kind of data set: Small animal PET/CT imaging, H460 tumor bearing mice. Format: in vivo, NOD/SCID mice. The note with it: H460 tumor bearing mice, quantitative PET, mean ± s.d., n = 3.
Assay in data set [2]: as above
The format is in vivo, NOD/SCID mice. The note with it: NOD/SCID, mouse, iv, total radioactivity.

A short description of data set [3]: Small animal PET/CT imaging, H2009 tumor bearing mice. The note with it: NOD/SCID, mouse, iv, total radioactivity. The format is in vivo, NOD/SCID mice.
Data set [4] has as its system H2009 (αvβ6^+) xenografts. The data set is described as above. Format: in vivo, NOD/SCID mice. The note with it: for Tumor uptake: quantitative PET, mean ± s.d.; for Tumor uptake / Tumor/Lung: n = 3; for Tumor/Lung: ratio of PET uptakes.
[5] abbreviates: H2009 tumor bearing mice, 1 h p.i.
[6] abbreviates: H2009 tumor bearing mice, 4 h p.i.
The mark [7] stands for this setting: H2009 tumor bearing mice, 24 h p.i.

αvβ6 integrin-positive H2009 human NSCLC cells, sequence (P18564 22-788): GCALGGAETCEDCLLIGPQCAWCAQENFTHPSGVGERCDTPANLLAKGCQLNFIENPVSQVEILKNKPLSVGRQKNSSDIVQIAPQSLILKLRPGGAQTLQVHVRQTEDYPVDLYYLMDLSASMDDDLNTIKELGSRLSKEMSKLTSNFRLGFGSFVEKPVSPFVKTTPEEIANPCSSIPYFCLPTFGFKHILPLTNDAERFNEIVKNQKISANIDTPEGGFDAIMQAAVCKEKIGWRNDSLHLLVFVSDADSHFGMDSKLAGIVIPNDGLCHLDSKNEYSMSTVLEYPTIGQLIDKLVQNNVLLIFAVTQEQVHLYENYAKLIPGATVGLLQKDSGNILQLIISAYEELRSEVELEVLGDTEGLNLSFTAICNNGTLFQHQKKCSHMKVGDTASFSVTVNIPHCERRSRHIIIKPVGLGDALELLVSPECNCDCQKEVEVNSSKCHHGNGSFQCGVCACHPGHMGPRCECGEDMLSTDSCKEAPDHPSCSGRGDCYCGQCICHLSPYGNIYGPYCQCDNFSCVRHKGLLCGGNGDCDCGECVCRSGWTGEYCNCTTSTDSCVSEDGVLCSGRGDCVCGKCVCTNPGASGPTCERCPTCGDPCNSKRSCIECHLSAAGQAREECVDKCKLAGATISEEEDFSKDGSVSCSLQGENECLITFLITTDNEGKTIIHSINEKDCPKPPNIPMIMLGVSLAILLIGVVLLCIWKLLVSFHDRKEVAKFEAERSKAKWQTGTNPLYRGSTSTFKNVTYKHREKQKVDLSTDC
αvβ6 integrin-positive H2009 human NSCLC cells, sequence (P06756 891-1048): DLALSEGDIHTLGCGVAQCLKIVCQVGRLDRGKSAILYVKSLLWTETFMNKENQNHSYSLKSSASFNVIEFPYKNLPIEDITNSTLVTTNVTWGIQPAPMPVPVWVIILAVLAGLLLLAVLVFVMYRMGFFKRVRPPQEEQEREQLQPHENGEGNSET
αvβ6 integrin-positive H2009 human NSCLC cells, sequence (P06756 31-889): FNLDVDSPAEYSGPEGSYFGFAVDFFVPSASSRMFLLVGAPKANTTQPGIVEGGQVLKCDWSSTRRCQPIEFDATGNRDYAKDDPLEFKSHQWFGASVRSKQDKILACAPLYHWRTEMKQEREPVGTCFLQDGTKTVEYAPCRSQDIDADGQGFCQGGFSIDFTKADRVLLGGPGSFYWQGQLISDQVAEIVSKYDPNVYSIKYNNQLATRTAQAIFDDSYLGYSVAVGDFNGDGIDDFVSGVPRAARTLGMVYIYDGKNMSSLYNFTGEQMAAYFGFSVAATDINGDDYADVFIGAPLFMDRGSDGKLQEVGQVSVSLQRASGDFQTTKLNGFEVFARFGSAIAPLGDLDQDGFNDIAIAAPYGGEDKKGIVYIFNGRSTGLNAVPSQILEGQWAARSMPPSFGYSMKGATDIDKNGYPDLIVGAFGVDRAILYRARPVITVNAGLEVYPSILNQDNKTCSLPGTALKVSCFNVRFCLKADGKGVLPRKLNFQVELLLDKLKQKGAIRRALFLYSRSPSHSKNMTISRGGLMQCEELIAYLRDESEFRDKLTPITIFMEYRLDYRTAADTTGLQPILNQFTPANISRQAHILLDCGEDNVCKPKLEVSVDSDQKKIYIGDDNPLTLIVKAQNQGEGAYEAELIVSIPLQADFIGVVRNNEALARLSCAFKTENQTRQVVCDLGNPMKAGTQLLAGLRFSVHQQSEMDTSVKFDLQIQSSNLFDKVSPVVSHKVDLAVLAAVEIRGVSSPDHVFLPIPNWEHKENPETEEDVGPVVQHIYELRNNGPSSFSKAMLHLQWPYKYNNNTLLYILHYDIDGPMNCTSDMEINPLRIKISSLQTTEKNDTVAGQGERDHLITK

A word on the IC50: it is the concentration needed to halve the response being measured. Low values mean greater potency, high ones weaker potency. Consider `CC(C)C[C@H](NC(=O)[C@H](CCC(N)=O)NC(=O)[C@H](CCCNC(=N)N)NC(=O)[C@H](CC(C)C)NC(=O)[C@@H](NC(=O)[C@H](C)NC(=O)[C@H](CC(C)C)NC(=O)[C@H](CC(=O)O)NC(=O)CNC(=O)[C@@H](N)CCCNC(=N)N)[C@@H](C)O)C(=O)NCCOCCOCCOCCOCCOCCOCCOCCOCCOCCOCCOCCOCCC(=O)N[C@@H](CSC1CC(=O)N(CCNC(=O)CCC(C(=O)O)N2CCCN3CCN(CCCN(CC(=O)O)CC3)CC2)C1=O)C(N)=O` (stereo partly drawn) [H2-M10], for which the IC50 in data set [1] was determined as 4.5 nM.

A word on the tissue uptake: it is the percentage of the injected dose found per gram of tissue. Take `CC(C)C[C@H](NC(=O)[C@H](CCC(N)=O)NC(=O)[C@H](CCCNC(=N)N)NC(=O)[C@H](CC(C)C)NC(=O)[C@@H](NC(=O)[C@H](C)NC(=O)[C@H](CC(C)C)NC(=O)[C@H](CC(=O)O)NC(=O)CNC(=O)[C@@H](N)CCCNC(=N)N)[C@@H](C)O)C(=O)NCCOCCOCCOCCOCCOCCOCCOCCOCCOCCOCCOCCOCCC(=O)N[C@@H](CSC1CC(=O)N(CCC(=O)NCCCC[C@H](NC(=O)CCN2C(=O)CC(SC[C@H](NC(=O)CCOCCOCCOCCOCCOCCOCCOCCOCCOCCOCCOCCOCCNC(=O)[C@H](CC(C)C)NC(=O)[C@H](CCC(N)=O)NC(=O)[C@H](CCCNC(=N)N)NC(=O)[C@H](CC(C)C)NC(=O)[C@@H](NC(=O)[C@H](C)NC(=O)[C@H](CC(C)C)NC(=O)[C@H](CC(=O)O)NC(=O)CNC(=O)[C@@H](N)CCCNC(=N)N)[C@@H](C)O)C(N)=O)C2=O)C(=O)NCCC(=O)N[C@@H](CSC2CC(=O)N(CCNC(=O)CCC(C(=O)O)N3CCCN4CCN(CCCN(CC(=O)O)CC4)CC3)C2=O)C(N)=O)C1=O)C(N)=O` (stereo partly drawn) [^64Cu-D10, metal not drawn]: the Tumor uptake in the data set with H460 (αvβ6^-) xenografts (1 h p.i.) is listed as 0.86 ± 0.21 %ID/g; with H460 (αvβ6^-) xenografts (4 h p.i.), 0.52 ± 0.05 %ID/g; in the data set with H460 (αvβ6^-) xenografts (24 h p.i.) it was 0.39 ± 0.04 %ID/g; in data set [4] (setting [5]) it was 1.53 ± 0.15 %ID/g; in data set [4] (setting [6]) it was 1.2 ± 0.26 %ID/g; in data set [4] (setting [7]), 0.89 ± 0.26 %ID/g. Besides, the tissue uptake at 1 h worked out at 1.41 ± 0.43 %ID/g in data set [2] (heart); 43.3 ± 5.4 %ID/g in data set [2] (kidney); 2.63 ± 0.92 %ID/g in data set [2] (liver); 1.33 ± 0.3 %ID/g in data set [2] (lung); 0.75 ± 0.24 %ID/g in data set [2] (muscle); 1.26 ± 0.37 %ID/g in data set [3] (heart). The tissue uptake at 1 h was determined as 43.5 ± 1.8 %ID/g in data set [3] (kidney), 2 ± 0.1 %ID/g in data set [3] (liver), 1.86 ± 0.2 %ID/g in data set [3] (lung) and 0.8 ± 0.11 %ID/g in data set [3] (muscle). Also, the tissue uptake at 4 h in data set [2] (heart) stood at 0.77 ± 0.09 %ID/g; in data set [2] (kidney) it was 50.1 ± 3.87 %ID/g; in data set [2] (liver) it was 2.3 ± 0.26 %ID/g; in data set [2] (lung), 0.77 ± 0.07 %ID/g; in data set [2] (muscle) it was 0.31 ± 0.06 %ID/g; in data set [3] (heart), 0.79 ± 0.27 %ID/g. The tissue uptake at 4 h in data set [3] (kidney) was 39.3 ± 5.66 %ID/g; in data set [3] (liver) it was 1.56 ± 0.11 %ID/g; in data set [3] (lung) it was 0.99 ± 0.18 %ID/g; in data set [3] (muscle) it was 0.4 ± 0.03 %ID/g. Also, the tissue uptake at 24 h is 0.47 ± 0.09 %ID/g in data set [2] (heart); 19.8 ± 2.38 %ID/g in data set [2] (kidney); 1.83 ± 0.15 %ID/g in data set [2] (liver); 0.45 ± 0.17 %ID/g in data set [2] (lung); 0.33 ± 0.08 %ID/g in data set [2] (muscle); 0.42 ± 0.1 %ID/g in data set [3] (heart). Further, the tissue uptake at 24 h stood at 21.4 ± 0.57 %ID/g in data set [3] (kidney), 1.01 ± 0.14 %ID/g in data set [3] (liver), 0.62 ± 0.23 %ID/g in data set [3] (lung) and 0.27 ± 0.13 %ID/g in data set [3] (muscle). Moreover, the “increase of kidney uptake as compared to 64Cu-M10” value in data set [4] (H2009 tumor bearing mice, 1 h, 4 h, 24 h p.i.) is on record as roughly 6 fold. Further, the results for the Tumor/Lung in data set [4] (setting [5]), in data set [4] (setting [6]) and in data set [4] (setting [7]) were 0.8 ± 0.25, 1.2 ± 0.31 and 1.4 ± 0.34, respectively. The “tumor uptake increase as compared to 64Cu-M10” value in data set [4] (H2009 tumor, all three time points (1 h, 4 h, 24 h p.i.)) is listed as roughly 3 fold.
